We go through five variants from IntAct's records for PubMed 31515488.

B1: Transcription factor 12 (Homo sapiens), Q99081-3 (parent)
chain: MNPQQQRMAAIGTDKELSDLLDFSAMFSPPVNSGKTRPTTLGSSQFSGSGIDERGGTTSWGTSGQPSPSYDSSRGFTDSPHYSDHLNDSRLGAHEGLSPTPFMNSNLMGKTSERGSFSLYSRDTGLPGCQSSLLRQDLGLGSPAQLSSSGKPGTAYYSFSATSSRRRPLHDSAALDPLQAKKVRKVPPGLPSSVYAPSPNSDDFNRESPSYPSPKPPTSMFASTFFMQDGTHNSSDLWSSSNGMSQPGFGGILGTSTSHMSQSSSYGNLHSHDRLSYPPHSVSPTDINTSLPPMSSFHRGSTSSSPYVAASHTPPINGSDSILGTRGNAAGSSQTGDALGKALASIYSPDHTSSSFPSNPSTPVGSPSPLTGTSQWPRPGGQAPSSPSYENSLHSLKNRVEQQLHEHLQDAMSFLKDVCEQSRMEDRLDRLDDAIHVLRNHAVGPSTSLPAGHSDIHSLLGPSHNAPIGSLNSNYGGSSLVASSRSASMVGTHREDSVSLNGNHSVLSSTVTTSSTDLNHKTQENYRGGLQSQSGTVVTTEIKTENKEKDENLHEPPSSDDMKSDDESSQKDIKVSSRGRTSSTNEDEDLNPEQKIEREKERRMANNARERLRVRDINEAFKELGRMCQLHLKSEKPQTKLLILHQAVAVILSLEQQVRERNLNPKAACLKRREEEKVSAVSAEPPTTLPGTHPGLSETTNPMGHM
B2: Keratin, type I cytoskeletal 13 (Homo sapiens), P13646 (parent)
chain: MSLRLQSSSASYGGGFGGGSCQLGGGRGVSTCSTRFVSGGSAGGYGGGVSCGFGGGAGSGFGGGYGGGLGGGYGGGLGGGFGGGFAGGFVDFGACDGGLLTGNEKITMQNLNDRLASYLEKVRALEEANADLEVKIRDWHLKQSPASPERDYSPYYKTIEELRDKILTATIENNRVILEIDNARLAADDFRLKYENELALRQSVEADINGLRRVLDELTLSKTDLEMQIESLNEELAYMKKNHEEEMKEFSNQVVGQVNVEMDATPGIDLTRVLAEMREQYEAMAERNRRDAEEWFHTKSAELNKEVSTNTAMIQTSKTEITELRRTLQGLEIELQSQLSMKAGLENTVAETECRYALQLQQIQGLISSIEAQLSELRSEMECQNQEYKMLLDIKTRLEQEIATYRSLLEGQDAKMIGFPSSAGSVSPRSTSVTTTSSASVTTTSNASGRRTSDVRRP

Variants of B1 are the subject of the first test. The note with it: with cdn2c_human CDKN2C.
Take A155T: the “effect of a mutation on the interaction” value is “with no effect”.

Regarding Y120C, the “effect of a mutation on the interaction” value is “with no effect”.

As to A482V, the “effect of a mutation on the interaction” value is on record as “with no effect”.

Turning to R74G, the “effect of a mutation on the interaction” value is “with no effect”.

In the next test the parent is B1. The note with it: with psa1_human PSMA1, P25786.
psa1_human PSMA1, P25786, sequence (P25786 whole entry): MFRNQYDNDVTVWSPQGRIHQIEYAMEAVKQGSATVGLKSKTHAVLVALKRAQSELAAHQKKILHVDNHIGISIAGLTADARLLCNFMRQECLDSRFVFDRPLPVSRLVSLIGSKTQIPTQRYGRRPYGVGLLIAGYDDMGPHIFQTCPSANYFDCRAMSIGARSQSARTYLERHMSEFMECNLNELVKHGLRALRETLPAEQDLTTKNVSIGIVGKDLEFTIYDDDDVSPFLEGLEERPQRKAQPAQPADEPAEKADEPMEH
With A155T, the “effect of a mutation on the interaction” value is “with no effect”.

In the case of Y120C, the “effect of a mutation on the interaction” value was “with no effect”.

On to A482V, for which the “effect of a mutation on the interaction” value was “with no effect”.

R74G: the “effect of a mutation on the interaction” value is on record as “with no effect”.

The variants in another test derive from B2. As to conditions: with k22e_human KRT2, P35908.
k22e_human KRT2, P35908, sequence (P35908 whole entry): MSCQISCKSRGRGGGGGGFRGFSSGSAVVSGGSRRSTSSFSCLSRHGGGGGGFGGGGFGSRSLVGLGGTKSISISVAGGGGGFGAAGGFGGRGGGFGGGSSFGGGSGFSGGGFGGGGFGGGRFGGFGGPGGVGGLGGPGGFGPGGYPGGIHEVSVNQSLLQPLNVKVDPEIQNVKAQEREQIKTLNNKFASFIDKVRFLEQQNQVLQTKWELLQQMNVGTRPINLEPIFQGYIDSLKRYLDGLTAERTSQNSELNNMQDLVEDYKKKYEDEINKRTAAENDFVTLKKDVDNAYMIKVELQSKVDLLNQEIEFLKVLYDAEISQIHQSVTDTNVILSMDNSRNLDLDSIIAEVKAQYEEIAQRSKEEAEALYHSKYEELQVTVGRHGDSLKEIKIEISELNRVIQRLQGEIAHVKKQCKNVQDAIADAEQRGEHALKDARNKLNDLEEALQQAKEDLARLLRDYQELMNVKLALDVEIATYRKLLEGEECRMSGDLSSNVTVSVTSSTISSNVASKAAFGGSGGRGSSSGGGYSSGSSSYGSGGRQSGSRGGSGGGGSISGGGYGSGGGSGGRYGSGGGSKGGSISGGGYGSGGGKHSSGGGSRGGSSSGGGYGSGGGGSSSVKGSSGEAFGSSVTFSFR
With R355H, the “effect of a mutation on the interaction” value is “with no effect”.

Variants of B2 are the subject of the next test. As to conditions: with k2c4_human KRT4, P19013.
k2c4_human KRT4, P19013, sequence (P19013 whole entry): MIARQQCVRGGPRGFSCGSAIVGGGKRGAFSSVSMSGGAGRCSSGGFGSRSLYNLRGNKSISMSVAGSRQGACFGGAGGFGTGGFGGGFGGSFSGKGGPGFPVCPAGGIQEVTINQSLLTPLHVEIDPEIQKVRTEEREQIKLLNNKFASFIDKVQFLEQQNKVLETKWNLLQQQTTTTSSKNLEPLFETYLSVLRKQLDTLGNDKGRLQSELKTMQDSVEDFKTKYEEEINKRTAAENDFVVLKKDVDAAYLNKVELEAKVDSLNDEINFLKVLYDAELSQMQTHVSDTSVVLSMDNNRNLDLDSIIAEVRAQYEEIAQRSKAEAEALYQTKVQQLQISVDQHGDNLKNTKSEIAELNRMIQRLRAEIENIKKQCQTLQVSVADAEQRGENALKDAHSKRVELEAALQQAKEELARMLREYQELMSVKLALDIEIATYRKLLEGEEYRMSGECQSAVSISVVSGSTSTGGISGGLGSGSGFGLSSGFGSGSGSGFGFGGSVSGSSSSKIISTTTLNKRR
For the variant R355H, the “effect of a mutation on the interaction” value is “with no effect”.

The next test covers variants of B2. As to conditions: with KRT6A.
Turning to R355H, the “effect of a mutation on the interaction” value is “with no effect”.

Variants of B2 are the subject of another test. The note with it: with ccnc_human CCNC.
Regarding R355H, the “effect of a mutation on the interaction” value was “with no effect”.
